The assay has as its target T1, Recombinant Stabilized SARS-CoV-2 Spike (SARS-CoV-2, Wuhan-Hu-1 reference (wave …, UniProt P0DTC2, stabilised)).
T1 construct: also called Pre-fusion, stabilized and uncleaved SARS-CoV-2 Spike (pcDNA3.1+)
The assay is described as follows: ELISA. To be noted: both partners purified.

These results are taken from paper PMC8015430 (Immunity, 2021).

B1: COVA1-16 (antibody, V domains shown)
VH: QVQLVQSGAEVKKPGASVKVSCKASGYTFTSYYMHWVRQAPGQGLEWMGIINSSGGSTSYAQKFQGRVTMTRDTSTSTVYMELSSLRSEDTAVYYCARPPRNYYDRSGYYQRAEYFQHWGQGTLVTVSS
VL: DIQLTQSPSSLSASVGDRVTITCQASQDISNYLNWYQQRPGKAPKLLIYDASNLETGVPSRFSGSGSGTDFTFTISSLQPEDIATYYCQQYDNPPLTFGGGTKLEIK
notes: IgG; RBD Class 4
Consider B1, for which the binding result is “binds”.

B2: COVA2-39 (antibody, V domains shown)
VH: QVQLVETGGGLIQPGGSLRLSCAASGFTVSSNYMSWVRQAPGKGLEWVSVIYTGGTTYYADSVKGRFTISRDNSKNTLYLQMNSLRAEDTAVYYCARAHVDTAMVESGAFDIWGQGTRVTVSS
VL: QSALTQPASVSGSPGQSITISCTGTSSDVGSYNLVSWYQQHPGKAPKLMIYEVTKRPSGVSNRFSGSKSGNTASLTISGLQAEDEADYYCCSYAGSSTWVFGGGTKLTVL
notes: IgG; RBD Class 2
Turning to B2, the binding result is listed as “binds”.
